Laboratory results: patent US20220135638A1 (Takeda / Millennium, published 2022)
Numbered stars: 1 amine (or outer) side, 2 acyl side, 3 side chain; on linkers, the order of the positions; unused ones are H or OH. Square brackets hold non-standard residues; d marks the D form. Primed or numbered codes have the meaning given here. Side chains are listed from the residue outwards. Ends that are not written are not given here. * marks the point of attachment. C20 diacid = O=C(O)CCCCCCCCCCCCCCCCCCC(=O)*; C18 diacid = O=C(O)CCCCCCCCCCCCCCCCC(=O)*; C16 diacid = O=C(O)CCCCCCCCCCCCCCC(=O)*; γGlu = O=C(O)[C@H](CCC(=O)[*:2])N[*:1]; Iva = CC[C@](C)(N)C(=O)O; PEG3′ = not defined here; Abu = CC[C@H](N)C(=O)O; Aib = CC(C)(N)C(=O)O

T1: full-length human GLP-1R (GenBank NM_002062) with an N-terminal FLAG tag on HEK-293T cells (human), P43220
T1 chain: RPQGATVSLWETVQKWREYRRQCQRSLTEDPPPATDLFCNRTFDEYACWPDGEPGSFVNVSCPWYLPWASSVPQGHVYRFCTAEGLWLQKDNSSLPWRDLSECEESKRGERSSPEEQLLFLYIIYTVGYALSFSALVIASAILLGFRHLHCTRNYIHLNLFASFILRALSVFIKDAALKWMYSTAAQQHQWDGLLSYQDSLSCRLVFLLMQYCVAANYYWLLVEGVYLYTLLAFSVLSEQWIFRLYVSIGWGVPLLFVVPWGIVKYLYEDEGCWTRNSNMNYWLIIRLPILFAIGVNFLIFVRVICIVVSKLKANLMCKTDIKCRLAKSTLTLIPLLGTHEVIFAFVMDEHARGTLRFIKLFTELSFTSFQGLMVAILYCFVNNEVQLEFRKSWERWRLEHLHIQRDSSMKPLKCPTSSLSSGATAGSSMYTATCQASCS

T2: full-length human GIPR (GenBank NM_000164) with an N-terminal FLAG tag on HEK-293T cells (human), P48546
T2 chain: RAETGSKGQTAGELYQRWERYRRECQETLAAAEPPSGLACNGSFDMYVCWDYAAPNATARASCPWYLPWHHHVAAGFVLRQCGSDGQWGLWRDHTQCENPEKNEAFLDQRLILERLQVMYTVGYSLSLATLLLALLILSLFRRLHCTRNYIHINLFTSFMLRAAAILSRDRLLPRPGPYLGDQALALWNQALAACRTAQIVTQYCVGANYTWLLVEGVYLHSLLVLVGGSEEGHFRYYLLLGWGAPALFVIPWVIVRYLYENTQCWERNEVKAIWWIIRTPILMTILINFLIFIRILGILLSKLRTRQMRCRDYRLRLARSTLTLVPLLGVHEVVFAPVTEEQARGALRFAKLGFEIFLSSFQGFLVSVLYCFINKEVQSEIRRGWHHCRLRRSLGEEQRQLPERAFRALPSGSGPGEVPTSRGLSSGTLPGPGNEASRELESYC


Experiments:
[1] = target: T1, full-length human GLP-1R (GenBank …); experiment: cell-based or functional assay
[2] = target: T2, full-length human GIPR (GenBank …); experiment: cell-based or functional assay

| Binder | GLP EC50 [1] [nM] | GIP EC50(pM) [2] [pM] |
| --- | --- | --- |
| Y[Aib]EGTFISDYSIALDR[Aib]HQ[Aib]NFVNW[Iva]LAQRPSSGAPPPK([Abu-γGlu-C18 diacid]) (ends and bridges not checked) [Compound No. 545] | > 1000 | 0.43 |
| Y[Aib]EGTFISDYSIALDR[Aib]HQ[Aib]NFVNW[Iva]LAQRK([γGlu-γGlu-C18 diacid])SSGAPPPS (ends and bridges not checked) [Compound No. 547] | > 1000 | 0.41 |
| Y[Aib]EGTFISDYSIALDR[Aib]HQ[Aib]NFVNW[Iva]LAQRPK([γGlu-γGlu-C18 diacid])SGAPPPS (ends and bridges not checked) [Compound No. 548] | > 1000 | 0.81 |
| Y[Aib]EGTFISDYSIALDR[Aib]HQ[Aib]NFVNW[Iva]LAQRPSK([γGlu-γGlu-C18 diacid])GAPPPS (ends and bridges not checked) [Compound No. 549] | > 1000 | 0.85 |
| Y[Aib]EGTFISDYSIALDR[Aib]HQ[Aib]NFVNW[Iva]LAQRPSSK([γGlu-γGlu-C18 diacid])APPPS (ends and bridges not checked) [Compound No. 550] | > 1000 | 0.83 |
| Y[Aib]EGTFISDYSIALDR[Aib]HQ[Aib]NFVNW[Iva]LAQRPSSGK([γGlu-γGlu-C18 diacid])PPPS (ends and bridges not checked) [Compound No. 551] | > 1000 | 0.6 |
| Y[Aib]EGTFISDYSIALDR[Aib]HQ[Aib]NFVNW[Iva]LAQRPSSGAK([γGlu-γGlu-C18 diacid])PPS (ends and bridges not checked) [Compound No. 552] | > 1000 | 1.12 |
| Y[Aib]EGTFISDYSIALDR[Aib]HQ[Aib]NFVNW[Iva]LAQRPSSGAPK([γGlu-γGlu-C18 diacid])PS (ends and bridges not checked) [Compound No. 553] | > 1000 | 1.08 |
| Y[Aib]EGTFISDYSIALDR[Aib]HQ[Aib]NFVNW[Iva]LAQRPSSGAPPK([γGlu-γGlu-C18 diacid])S (ends and bridges not checked) [Compound No. 554] | > 1000 | 0.82 |
| Y[Aib]EGTFISDYSIALDR[Aib]HQ[Aib]NFVNW[Iva]LAQRPSSGAPPPK([γGlu-γGlu-C18 diacid]) (ends and bridges not checked) [Compound No. 555] | > 1000 | 0.97 |
| Y[Aib]EGTFISDYSIALDR[Aib]HQ[Aib]NFVNW[Iva]LAQRK([PEG3′-PEG3′-C16 diacid])SSGAPPPSR (ends and bridges not checked) [Compound No 911] | 93.3 | 0.8 |
| Y[Aib]EGTFISDYSIALDR[Aib]HQ[Aib]NFVNW[Iva]LAQRK([PEG3′-PEG3′-C18 diacid])SSGAPPPSR (ends and bridges not checked) [Compound No 912] | 105 | 0.7 |
| Y[Aib]EGTFISDYSIALDR[Aib]HQ[Aib]NFVNW[Iva]LAQRPK([PEG3′-PEG3′-C16 diacid])SGAPPPSR (ends and bridges not checked) [Compound No 892] | 151 | 1.7 |
| Y[Aib]EGTFISDYSIALDR[Aib]HQ[Aib]NFVNW[Iva]LAQRPK([PEG3′-PEG3′-C18 diacid])SGAPPPSR (ends and bridges not checked) [Compound No 893] | 2.1 | 2.3 |
| Y[Aib]EGTFISDYSIALDR[Aib]HQ[Aib]NFVNW[Iva]LAQRPK([PEG3′-PEG3′-C20 diacid])SGAPPPSR (ends and bridges not checked) [Compound No 894] | 794 | 1.9 |
| Y[Aib]EGTFISDYSIALDR[Aib]HQ[Aib]NFVNW[Iva]LAQRPSK([PEG3′-PEG3′-C16 diacid])GAPPPSR (ends and bridges not checked) [Compound No 898] | 74.1 | 0.6 |
| Y[Aib]EGTFISDYSIALDR[Aib]HQ[Aib]NFVNW[Iva]LAQRPSK([PEG3′-PEG3′-C18 diacid])GAPPPSR (ends and bridges not checked) [Compound No 899] | 144 | 0.7 |
| Y[Aib]EGTFISDYSIALDR[Aib]HQ[Aib]NFVNW[Iva]LAQRPSK([PEG3′-PEG3′-C20 diacid])GAPPPSR (ends and bridges not checked) [Compound No 900] | 219 | 0.7 |
| Y[Aib]EGTFISDYSIALDR[Aib]HQ[Aib]NFVNW[Iva]LAQRPSSGAPK([PEG3′-PEG3′-C16 diacid])PSR (ends and bridges not checked) [Compound No 927] | 436 | 1.3 |
| Y[Aib]EGTFISDYSIALDR[Aib]HQ[Aib]NFVNW[Iva]LAQRPSSGAPK([PEG3′-PEG3′-C18 diacid])PSR (ends and bridges not checked) [Compound No 928] | 135 | 1.6 |
| Y[Aib]EGTFISDYSIALDR[Aib]HQ[Aib]NFVNW[Iva]LAQRPSSGAPK([PEG3′-PEG3′-C20 diacid])PSR (ends and bridges not checked) [Compound No 929] | 46.8 | 1.8 |
| Y[Aib]EGTFISDYSIALDR[Aib]HQ[Aib]NFVNW[Iva]LAQRPSSGAPPK([PEG3′-PEG3′-C16 diacid])SR (ends and bridges not checked) [Compound No 933] | 97.7 | 0.6 |
| Y[Aib]EGTFISDYSIALDR[Aib]HQ[Aib]NFVNW[Iva]LAQRPSSGAPPK([PEG3′-PEG3′-C18 diacid])SR (ends and bridges not checked) [Compound No 934] | 436 | 0.6 |
| Y[Aib]EGTFISDYSIALDR[Aib]HQ[Aib]NFVNW[Iva]LAQRPSSGAPPK([PEG3′-PEG3′-C20 diacid])SR (ends and bridges not checked) [Compound No 935] | 1000 | 1 |
| Y[Aib]EGTFISDYSIALDR[Aib]HQ[Aib]NFVNW[Iva]LAQRPSSGAPPPK([PEG3′-PEG3′-C16 diacid])R (ends and bridges not checked) [Compound No 939] | 1000 | 0.6 |
| Y[Aib]EGTFISDYSIALDR[Aib]HQ[Aib]NFVNW[Iva]LAQRPSSGAPPPK([PEG3′-PEG3′-C18 diacid])R (ends and bridges not checked) [Compound No 940] | 525 | 0.7 |
| Y[Aib]EGTFISDYSIALDR[Aib]HQ[Aib]NFVNW[Iva]LAQRPSSGAPPPK([PEG3′-PEG3′-C20 diacid])R (ends and bridges not checked) [Compound No 941] | 1000 | 0.4 |
| Y[Aib]EGTFISDYSIALDR[Aib]HQ[Aib]NFVNW[Iva]LAQRGGGGSK([PEG3′-PEG3′-γGlu-C18 diacid]) (ends and bridges not checked) [Compound No 942] | 4.3 | 1.4 |
